{"source": "paper PMC3877065", "about": "“Ligand Recognition by the TPR Domain of the Import Factor Toc64 from Arabidopsis thaliana” (PLoS ONE, 2013)", "molecules": {"B1": {"name": "C-terminal pentapeptide of Hsp70, Hsp70_C5 (IEEVD) (peptide)", "peptide": "IEEVD", "notes": "C-terminal pentapeptide of Hsp70; also called C70_C5; Hsp70 pentapeptide; source: synthetic peptide (Biomatik, >85% purity)"}, "B2": {"name": "C-terminal octapeptide of Hsp90 (TSRMEEVD) (peptide)", "peptide": "TSRMEEVD", "notes": "C-terminal octapeptide of Hsp90; also called Hsp90 octapeptide; C90_C8; source: synthetic peptide (Biomatik, >85% purity)"}, "B3": {"name": "C-terminal pentapeptide of Hsp90, Hsp90_C5 (MEEVD) (peptide)", "peptide": "MEEVD", "notes": "C-terminal pentapeptide of Hsp90; also called C90_C5; Hsp90 pentapeptide; source: synthetic peptide (Biomatik, >85% purity)"}, "B4": {"name": "C-terminal octapeptide of Hsp70 (GPTIEEVD) (peptide)", "peptide": "GPTIEEVD", "notes": "C-terminal octapeptide of Hsp70; also called Hsp70 octapeptide; C70_C8; source: synthetic peptide (Biomatik, >85% purity)"}}, "note": "Where no end group is shown, it is not given here.", "data": [{"biological_target": "T1, TPR domain of AtToc64 (AtToc64_TPR-H6) (Arabidopsis thaliana, UniProt Q9LVH5)", "T1 construct": "The region encompassing the TPR domain of AtToc64 was composed of residues 474–589; made in house; host or cells: E. coli BL21(DE3)", "assay": "biochemical", "assay_type": "binding", "conditions": "not given", "method": "(§1) Peptides were dissolved in the superdex buffer at 6–14 mM concentration and 302 µL were titrated against 1.4 ml of protein at 0.1–0.3 mM in a VP-ITC Microcal Instrument (GE Healthcare). Titrations were carried out at 20°C using 30 injections of 10 µL each injected at interval of 200 seconds. Injections were continued beyond saturation levels to allow determination of the heats of ligand dilution. The non-linear least square curve-fitting algorithm (Microcal Origin) was used for data fitting. After subtraction of the heat of dilution, three floating variables: stoichiometry (N), binding constant (Kd) and change in enthalpy of interaction (ΔH) were obtained. For subsequent alanine scan experiments the stoichiometry was fixed at N = 1.", "units": {"Kd": "µM"}, "values": [{"molecule": "TSRMEEVD [TSRMEEVD]", "Kd": 218}, {"molecule": "GPTIEEVD [GPTIEEVD]", "Kd": 230}, {"molecule": "TSRMEAVD [TSRMEAVD]", "Kd": 1910}, {"molecule": "GPTAEEVD [GPTAEEVD]", "Kd": 4650}, {"molecule": "TSRMEEVA [TSRMEEVA]", "Kd": 1400}, {"molecule": "CC[C@H](C)[C@H](N)C(=O)N[C@@H](CCC(=O)O)C(=O)N[C@@H](CCC(=O)O)C(=O)N[C@H](C(=O)N[C@@H](CC(=O)O)C(=O)O)C(C)C", "note": "[IEEVD]", "Kd": 568}, {"molecule": "CSCC[C@H](N)C(=O)N[C@@H](CCC(=O)O)C(=O)N[C@@H](CCC(=O)O)C(=O)N[C@H](C(=O)N[C@@H](CC(=O)O)C(=O)O)C(C)C", "note": "[MEEVD]", "Kd": 800}]}, {"biological_target": "T1, TPR domain of AtToc64 (AtToc64_TPR-H6)", "assay": "biochemical", "assay_type": "binding", "conditions": "ITC alanine scanning, Table S1, stoichiometry fixed at N = 1, 20°C", "method": "as §1", "values": [{"molecule": "GPTIEAVD [Ala-substituted Hsp70 octapeptide]", "Kd": "No binding"}, {"molecule": "GPTIEEVA [Ala-substituted Hsp70 octapeptide]", "Kd": "No binding"}, {"molecule": "GPTIEEAD [Ala-substituted Hsp70 octapeptide]", "Kd": "No binding"}, {"molecule": "TSRMAEVD [Ala-substituted Hsp90 octapeptide]", "Kd": "No binding*"}]}, {"biological_target": "T1, TPR domain of AtToc64 (AtToc64_TPR-H6)", "assay": "biochemical", "assay_type": "binding", "conditions": "ITC, Figure 4, alanine scanning of octapeptides; stoichiometry fixed at N = 1 for alanine scan; 20°C", "method": "as §1", "values": [{"molecule": "TSRMAEVD [Ala-substituted Hsp90 octapeptide]", "Kd": "No binding"}, {"molecule": "TSRMEEAD [Ala-substituted Hsp90 octapeptide]", "Kd": "No binding"}]}, {"biological_target": "T2, TPR domain of AtToc64 with a C-terminal hexa-histidine tag (AtToc64_TPR-H6) (Arabidopsis thaliana, UniProt Q9LVH5 474-589)", "T2 chain": "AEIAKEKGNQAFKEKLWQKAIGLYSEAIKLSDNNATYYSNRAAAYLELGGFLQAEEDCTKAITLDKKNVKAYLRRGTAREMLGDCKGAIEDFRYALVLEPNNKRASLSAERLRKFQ", "assay": "ITC", "conditions": "not given", "units": {"Kd": "µM"}, "values": [{"molecule": "TSRMEAVD", "note": "[Hsp90 C-terminal octapeptide, Glu122 to Ala (TSRMEAVD)]", "Kd": 1900}, {"molecule": "TSRAEEVD", "note": "[Hsp90 C-terminal octapeptide, Met120 to Ala (TSRAEEVD)]", "Kd": 1080}, {"molecule": "TSAMEEVD", "note": "[Hsp90 C-terminal octapeptide, Arg119 to Ala (TSAMEEVD)]", "Kd": 100}, {"molecule": "TSRMEEVA", "note": "[Hsp90 C-terminal octapeptide, Asp124 to Ala]", "Kd": 1400}, {"molecule": "ASRMEEVD", "note": "[Hsp90 C-terminal octapeptide, Thr117 to Ala]", "Kd": 854}, {"molecule": "GPTAEEVD", "note": "[Hsp70 C-terminal octapeptide, Ile120 to Ala (GPTAEEVD)]", "Kd": 4600}, {"molecule": "GPAIEEVD", "note": "[Hsp70 C-terminal octapeptide, Thr119 to Ala (GPAIEEVD)]", "Kd": 769}, {"molecule": "APTIEEVD", "note": "[Hsp70 C-terminal octapeptide, Gly117 to Ala]", "Kd": 740}, {"molecule": "TARMEEVD", "note": "[Hsp90 C-terminal octapeptide, Ser118 to Ala (TARMEEVD)]", "Kd": 344}, {"molecule": "GATIEEVD", "note": "[Hsp70 C-terminal octapeptide, Pro118 to Ala (GATIEEVD)]", "Kd": 657}]}, {"biological_target": "TPR domain of AtToc64 with a C-terminal hexa-histidine tag (AtToc64_TPR-H6) (Arabidopsis thaliana) (UniProt Q9LVH5)", "assay": "ITC; peptide (6-14 mM) titrated into AtToc64_TPR-H6 (0.1-0.3 mM) in the cell, VP-ITC, 20°C, 25 mM Hepes, 100 mM KCl, pH 7.3; 1:1 model, stoichiometry fixed at N = 1 for the alanine scan", "conditions": "not given", "units": {"Kd": "µM"}, "values": [{"molecule": "Hsp90 C-terminal octapeptide, alanine mutant ASRMEEVD", "Kd": 854, "stoichiometry N": 1}, {"molecule": "Hsp70 C-terminal octapeptide, alanine mutant GPAIEEVD", "Kd": 769, "stoichiometry N": 1}, {"molecule": "Hsp90 C-terminal octapeptide, alanine mutant TSRMEEVA", "stoichiometry N": 1}, {"molecule": "Hsp90 C-terminal octapeptide, alanine mutant TSRAEEVD", "Kd": 1080, "stoichiometry N": 1}, {"molecule": "Hsp70 C-terminal octapeptide, alanine mutant GPTAEEVD", "stoichiometry N": 1}, {"molecule": "Hsp70 C-terminal octapeptide, alanine mutant APTIEEVD", "Kd": 740, "stoichiometry N": 1}, {"molecule": "Hsp90 C-terminal octapeptide, alanine mutant TARMEEVD", "Kd": 344, "stoichiometry N": 1}, {"molecule": "Hsp90 C-terminal octapeptide, alanine mutant TSAMEEVD", "Kd": 100, "stoichiometry N": 1}, {"molecule": "Hsp70 C-terminal octapeptide, alanine mutant GATIEEVD", "Kd": 657, "stoichiometry N": 1}, {"molecule": "Hsp90 C-terminal octapeptide, alanine mutant TSRMEAVD", "stoichiometry N": 1}]}, {"biological_target": "T3, TPR domain of AtToc64 with a C-terminal hexa-histidine tag (AtToc64_TPR-H6) (Arabidopsis thaliana, UniProt Q9LVH5 474-589)", "T3 construct": "Toc64 (AtToc64) from Arabidopsis thaliana, TPR domain, residues 474-589 of the full-length protein (NP_188424, At3g17970); Cloned with NcoI/XhoI into pETM10; also called TPR domain of Toc64 from Arabidopsis thaliana; source: E. coli BL21(DE3), purified (Ni-NTA, size exclusion chromatography); not shown: His6, C-terminal, kept", "T3 sequence (looked up)": "T2 chain", "assay": "ITC; peptide (6-14 mM) titrated into 1.4 ml of protein (0.1-0.3 mM) in the cell; 20°C; 25 mM Hepes, 100 mM KCl, pH 7.3; 30 injections of 10 µL; 1:1 binding model with N, Kd and ΔH floating", "conditions": "both partners purified", "values": [{"molecule": "B1", "stoichiometry N": 1.2}]}, {"biological_target": "T3, TPR domain of AtToc64 with a C-terminal …", "assay": "ITC; peptide (6-14 mM) titrated into 1.4 ml of protein (0.1-0.3 mM) in the cell; 20°C; 25 mM Hepes, 100 mM KCl, pH 7.3; 30 injections of 10 µL; 1:1 binding model with N, Kd and ΔH floating", "conditions": "both partners purified", "remark": "another data set of the same source", "units": {"dH": "kcal/mol"}, "values": [{"molecule": "B2", "dH": -6.18, "stoichiometry N": 0.94}, {"molecule": "B1", "dH": -1.63, "stoichiometry N": 0.93}, {"molecule": "B3", "dH": -2.68, "stoichiometry N": 1.04}, {"molecule": "B4", "dH": -1, "stoichiometry N": 1.2}]}]}
